Measurements taken from US20240150489A1 (ICHNOS SCIENCES, published 2024).
Where a chain is given by its changes, count along the chain named. Names and notes keep the numbering of the source. Where two headings read alike, the source gives them in different places.

T1: human FcγR2a-ECD-His (human, UniProt P12318 34-208)
T1 construct: His-tagged fusion made in house (UniProt P12318); The SPR method names only 'Fc-receptors IIa, IIb, and IIIa'; also called FcγRIIa; Fc-receptor IIa
T1 chain: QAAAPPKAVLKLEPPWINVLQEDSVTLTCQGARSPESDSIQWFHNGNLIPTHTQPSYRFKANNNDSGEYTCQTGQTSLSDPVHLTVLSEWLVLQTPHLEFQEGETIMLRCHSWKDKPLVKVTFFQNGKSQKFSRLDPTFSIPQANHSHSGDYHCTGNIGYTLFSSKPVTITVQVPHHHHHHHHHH

T2: human FcγR2b-ECD-His (human, UniProt P31994 46-217)
T2 construct: His-tagged fusion made in house (UniProt P31994); also called FcγRIIb; Fc-receptor IIb
T2 sequence: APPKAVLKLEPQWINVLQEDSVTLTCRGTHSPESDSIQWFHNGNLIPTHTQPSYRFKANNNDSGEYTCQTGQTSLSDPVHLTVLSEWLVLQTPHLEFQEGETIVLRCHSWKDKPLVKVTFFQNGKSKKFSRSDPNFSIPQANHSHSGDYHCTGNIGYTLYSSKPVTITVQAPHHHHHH

B1: BEAT CD38/CD47-48 (bispecific antibody, human IgG1, kappa)
heavy 1: EVQLVESGGGLIQPGGSLRLSCAASGFTLSRNTMHWVRQAPGKGLEWVSVIYQSGVTRYADSVKSRFTISRDNSKNTLYLQMNSLRAEDTAVYYCARGRYGVAGGPGYAFDVWGQGTLVTVSSASTKGPSVFPLAPSSKSTSGGTAALGCLVKDYFPEPVTVSWNSGALTSGVHTFPAVLQSSGLYSLSSVVTVPSSSLGTQTYICNVNHKPSNTKVDKKVEPKSCDKTHTCPPCPAPELLGGPDVFLFPPKPKDTLMISRTPEVTCVVVDVSHEDPEVKFNWYVDGVEVHNAKTKPREEQYNSTYRVVSVLTVLHQDWLNGKEYKCKVNNKALPAPEEKTISKAKGQPREPAVYTLPPSREEMTKNQVKLVCLVTGFYPSDIAVEWESSGQPENNYYTTPPMLDSDGSFSLVSWLNVDKSRWQQGNIFSCSVMHEALHNRFTQKSLSLSPG
heavy 2: not shown
light: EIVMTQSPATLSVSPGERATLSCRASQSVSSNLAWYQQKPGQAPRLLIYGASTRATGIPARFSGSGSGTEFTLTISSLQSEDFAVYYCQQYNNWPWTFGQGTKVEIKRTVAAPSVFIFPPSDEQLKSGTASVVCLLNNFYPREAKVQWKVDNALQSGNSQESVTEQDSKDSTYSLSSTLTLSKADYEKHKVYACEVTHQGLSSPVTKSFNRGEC
notes: 2+1 biparatopic format; the number of light chains follows from the three Fab domains; also called BEAT CD38/47-48; BEAT 38/47-48
B2: BEAT CD38/CD47-21 (bispecific antibody, human IgG1, kappa)
heavy 1: B1 heavy 1 with D245S, E338I, K340E
heavy 2: QVQLVQSGAEVKKPGSSVKVSCKASGLPDATYAIGWVRQAPGQGLEWMGRIIPRLDAEHYAQKFQGRVTITADESTSTAYMELSSLRSEDTAVYYCARGLGYYLYSSYYFDIWGQGTLVTVSSASTKGPSVFPLAPSSKSTSGGTAALGCLVKDYFPEPVTVSWNSGALTSGVHTFPAVLQSSGLYSLSSVVTVPSSSLGTQTYICNVNHKPSNTKVDKKVEPKSCDKTHTCPPCPAPELLGGPSVFLFPPKPKDTLMISRTPEVTCVVVDVSHEDPEVKFNWYVDGVEVHNAKTKPREEQYNSTYRVVSVLTVLHQDWLNGKEYKCKVNNKALPAPIEETISKAKGQPREPEVATFPPSRDELTKNQVTLVCLVTGFYPSDIAVEWESNGQPENNYKTDPPLLESQGSFALSSRLRVDKSRWQQGNVFSCSVMHEALHNHYTQKSLSLSPG
light: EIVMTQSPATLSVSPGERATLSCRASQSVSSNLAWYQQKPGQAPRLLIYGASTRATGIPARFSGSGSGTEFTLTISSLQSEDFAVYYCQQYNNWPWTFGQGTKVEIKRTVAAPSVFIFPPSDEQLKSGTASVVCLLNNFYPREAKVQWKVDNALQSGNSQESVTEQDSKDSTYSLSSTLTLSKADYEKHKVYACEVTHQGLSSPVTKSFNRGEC
notes: 1+1 format; Fc mutations S324N + K334E in both heavy chains
B3: BEAT CD38/CD47-32 (bispecific antibody, human IgG1, kappa)
heavy 1: B1 heavy 1 with D245S, E275D, S304A, E338I, E339A
heavy 2: QVQLVQSGAEVKKPGSSVKVSCKASGLPDATYAIGWVRQAPGQGLEWMGRIIPRLDAEHYAQKFQGRVTITADESTSTAYMELSSLRSEDTAVYYCARGLGYYLYSSYYFDIWGQGTLVTVSSASTKGPSVFPLAPSSKSTSGGTAALGCLVKDYFPEPVTVSWNSGALTSGVHTFPAVLQSSGLYSLSSVVTVPSSSLGTQTYICNVNHKPSNTKVDKKVEPKSCGGGGSGGGGSGGGGSQVQLVQSGAEVKKPGSSVKVSCKASGLPDATYAIGWVRQAPGQGLEWMGRIIPRLDAEHYAQKFQGRVTITADESTSTAYMELSSLRSEDTAVYYCARGLGYYLYSSYYFDIWGQGTLVTVSSASTKGPSVFPLAPSSKSTSGGTAALGCLVKDYFPEPVTVSWNSGALTSGVHTFPAVLQSSGLYSLSSVVTVPSSSLGTQTYICNVNHKPSNTKVDKKVEPKSCDKTHTCPPCPAPELLGGPSVFLFPPKPKDTLMISRTPEVTCVVVDVSHDDPEVKFNWYVDGVEVHNAKTKPREEQYNATYRVVSVLTVLHQDWLNGKEYKCKVNNKALPAPIAKTISKAKGQPREPEVATFPPSRDELTKNQVTLVCLVTGFYPSDIAVEWESNGQPENNYKTDPPLLESQGSFALSSRLRVDKSRWQQGNVFSCSVMHEALHNHYTQKSLSLSPG
light: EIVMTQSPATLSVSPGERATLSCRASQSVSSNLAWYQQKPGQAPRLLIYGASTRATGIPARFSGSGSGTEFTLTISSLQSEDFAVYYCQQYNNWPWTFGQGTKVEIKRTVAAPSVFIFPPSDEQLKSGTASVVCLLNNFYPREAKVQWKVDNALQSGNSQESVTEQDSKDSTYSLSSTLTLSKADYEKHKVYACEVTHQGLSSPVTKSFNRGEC
notes: 2+1 monoparatopic format; E269D + S298A + S324N + E333A in both heavy chains
B4: BEAT CD38/CD47-42 (bispecific antibody, human IgG1, kappa)
heavy 1: B1 heavy 1
heavy 2: B2 heavy 2 with E340K
light: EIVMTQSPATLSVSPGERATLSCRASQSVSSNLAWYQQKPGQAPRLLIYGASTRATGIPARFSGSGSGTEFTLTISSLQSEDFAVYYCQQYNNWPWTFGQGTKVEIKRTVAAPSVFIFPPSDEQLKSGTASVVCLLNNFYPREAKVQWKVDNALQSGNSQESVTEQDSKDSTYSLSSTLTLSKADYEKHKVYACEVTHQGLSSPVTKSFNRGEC
notes: 1+1 format; BEAT (A): S239D + I332E + S324N, BEAT (B): S324N
B5: BEAT CD38/CD47-40 (bispecific antibody, human IgG1, kappa)
heavy 1: B1 heavy 1 with D245S, E275D, S304A, E338I, K340A
heavy 2: not shown
light: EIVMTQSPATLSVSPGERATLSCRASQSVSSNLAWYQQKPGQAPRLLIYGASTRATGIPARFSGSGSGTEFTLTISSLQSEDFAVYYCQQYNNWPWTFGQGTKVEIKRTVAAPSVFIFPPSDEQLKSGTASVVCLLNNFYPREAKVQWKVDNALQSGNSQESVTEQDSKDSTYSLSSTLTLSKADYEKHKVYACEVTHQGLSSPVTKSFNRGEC
notes: 2+1 biparatopic format; E269D + S298A + S324N + K334A in both heavy chains
B6: BEAT CD38/CD47-34 (bispecific antibody, human IgG1, kappa)
heavy 1: B1 heavy 1 with D245S, E275D, S304A, E338I, K340A
heavy 2: B3 heavy 2 with A580E, K581A
light: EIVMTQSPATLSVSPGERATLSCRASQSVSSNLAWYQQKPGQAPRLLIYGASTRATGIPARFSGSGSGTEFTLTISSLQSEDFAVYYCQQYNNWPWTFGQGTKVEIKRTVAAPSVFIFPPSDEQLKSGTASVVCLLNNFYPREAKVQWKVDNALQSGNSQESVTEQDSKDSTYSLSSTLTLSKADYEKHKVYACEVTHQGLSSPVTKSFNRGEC
notes: 2+1 monoparatopic format; E269D + S298A + S324N + K334A in both heavy chains

Assays:
[1] = molecular target: T3, CD38 on cells (Daudi, Raji, KMS-12-PE, NCI-H929, KMS-12-BM) (human, UniProt P28907); assay: flow cytometry on Raji cells (carry CD38 and CD47), anti-human IgG-Fc PE, GeoMFI; apparent whole-cell value, the anti-CD47 arm also binds
T3 construct: full-length, cell surface; These cells also carry CD47

[2] = molecular target: T4, CD47 on cells (Daudi cells; human red blood cells) (human, UniProt Q08722 19-323); assay: blocking of SIRPα-mIgG1 Fc binding to CD47 on Daudi cells, image-based readout with anti-mouse IgG Fc Alexa Fluor 647, % inhibition; the sheet calls the half-maximal value EC50
T4 construct: whole, on cells; These cells also carry CD38

[3] = molecular target: T3, CD38 on cells (Daudi, Raji, KMS-12-PE, …); assay: flow cytometry on Daudi cells (carry CD38 and CD47), anti-human IgG-Fc PE, GeoMFI; apparent whole-cell value, the anti-CD47 arm also binds
[4] = molecular target: T5, Avi-Tagged FcRn (Acrobiosystems, FCM-H82W2) (human, UniProt P55899 24-297, biotinylated (captured with Biotin CAPture kit)); assay: SPR steady state, FcRn captured on CAP chip, antibody analyte; reference trastuzumab control IgG1
T5 construct: also called human neonatal Fc receptor

[5] = molecular target: T3, CD38 on cells (Daudi, Raji, KMS-12-PE, …); assay: flow cytometry on KMS-12-BM cells (carry CD38 and CD47), anti-human IgG-Fc PE, GeoMFI; apparent whole-cell value, the anti-CD47 arm also binds
[6] = molecular target: T6, Avi-Tagged FcγRIa (Acrobiosystems, FCA-H82E8) (UniProt P12314 16-288, biotinylated (captured with Biotin CAPture kit)); assay: SPR, FcγRIa captured on CAP chip, antibody analyte; reference trastuzumab control IgG1
[7] = molecular target: T3, CD38 on cells (Daudi, Raji, KMS-12-PE, …); assay: flow cytometry on KMS-12-PE cells (carry CD38 and CD47), anti-human IgG-Fc PE, GeoMFI; apparent whole-cell value, the anti-CD47 arm also binds
[8] = molecular target: T3, CD38 on cells (Daudi, Raji, KMS-12-PE, …); assay: flow cytometry on NCI-H929 cells (carry CD38 and CD47), anti-human IgG-Fc PE, GeoMFI; apparent whole-cell value, the anti-CD47 arm also binds
human FcγR2a-ECD-His [9] = molecular target: T1, human FcγR2a-ECD-His; assay: SPR steady state, antibody on protein G chip, receptor analyte; reference trastuzumab control IgG1
human FcγR2b-ECD-His [10] = molecular target: T2, human FcγR2b-ECD-His; assay: as above
human FcγR3a-ECD-His [11] = molecular target: T7, human FcγR3a-ECD-His (human, UniProt P08637 17-193); assay: as above
T7 construct: His-tagged fusion made in house (UniProt P08637); also called FcγRIIIa; Fc-receptor IIIa

[12] = molecular target: T6, Avi-Tagged FcγRIa (Acrobiosystems, …); assay: SPR, FcγRIa captured on CAP chip, antibody analyte; reference trastuzumab control IgG1; remark: listed apart in the source
human FcγR2a-ECD-His [13] = molecular target: T1, human FcγR2a-ECD-His; assay: SPR steady state, antibody on protein G chip, receptor analyte; reference trastuzumab control IgG1
human FcγR2b-ECD-His [14] = molecular target: T2, human FcγR2b-ECD-His; assay: as above; remark: listed apart in the source
human FcγR3a-ECD-His [15] = molecular target: T7, human FcγR3a-ECD-His; assay: as above; remark: listed apart in the source

| Binder | EC50 (read off the curve) [1] [nM] | IC50 (read off the curve) [2] [nM] | EC50 (read off the curve) [3] [nM] | KD ratio [BEAT/Control IgG1] [4] [ratio] | EC50 (read off the curve) [5] [nM] | fold gain in affinity vs control [6] [fold] | EC50 (read off the curve) [7] [nM] | EC50 (read off the curve) [8] [nM] | fold gain in affinity vs control (human FcγR2a-ECD-His [9]) [fold] | fold gain in affinity vs control (human FcγR2b-ECD-His [10]) [fold] | fold gain in affinity vs control (human FcγR3a-ECD-His [11]) [fold] | fold gain in affinity vs control [12] [fold] | fold gain in affinity vs control (human FcγR2a-ECD-His [13]) [fold] | fold gain in affinity vs control (human FcγR2b-ECD-His [14]) [fold] | fold gain in affinity vs control (human FcγR3a-ECD-His [15]) [fold] |
| --- | --- | --- | --- | --- | --- | --- | --- | --- | --- | --- | --- | --- | --- | --- | --- |
| B1 | ~10 | ~0.05 | ~8 | 0.2 | ~30 | 864 | ~6 | ~20 | 7 | 16 | 10 |  |  |  |  |
| B2 |  |  |  | 0.4 |  |  |  |  |  |  |  | 1030 | 1 | 0.1 | 2 |
| B3 |  |  |  |  |  | 12 |  |  | 0.5 | 1 | 3 |  |  |  |  |
| B4 |  |  |  | 0.5 |  |  |  |  |  |  |  | 3750 | 6 | 14 | 11 |
| B5 |  |  |  | 0.3 |  | 4510 |  |  | 0.4 | 1 | 4 |  |  |  |  |
| B6 |  |  |  |  |  | 874 |  |  | 0.4 | 1 | 4 |  |  |  |  |
